Among the data in US20110244473A1 are rate of DR5 endocytosis and receptor internalizing over 2 hr (fraction of the receptor) values, retold here.

The experiment has as its target Death Receptor 5 (human) (UniProt O14763). In words: cell-based or functional assay.
Chain of UniProt O14763 (O14763 other isoform, or with tags, fused parts or gaps limits assumed): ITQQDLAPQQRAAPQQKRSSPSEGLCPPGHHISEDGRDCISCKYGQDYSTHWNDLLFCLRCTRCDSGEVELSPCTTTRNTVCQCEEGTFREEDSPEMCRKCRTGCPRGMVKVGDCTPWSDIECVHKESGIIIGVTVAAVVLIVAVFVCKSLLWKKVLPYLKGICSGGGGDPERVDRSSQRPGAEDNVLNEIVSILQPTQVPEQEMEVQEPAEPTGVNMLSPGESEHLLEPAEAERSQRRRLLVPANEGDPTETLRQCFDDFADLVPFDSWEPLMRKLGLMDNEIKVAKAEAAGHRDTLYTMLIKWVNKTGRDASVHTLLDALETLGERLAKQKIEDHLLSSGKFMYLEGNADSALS

Consider “Flag-tagged human recombinant soluble Apo2L/TRAIL cross-linked by anti-FLAG M2 antibody (from UniProt P50591 114-281) (ligand)”, for which the rate of DR5 endocytosis is 2 fold and the receptor internalizing over 2 hr (fraction of the receptor) was found to be 0.33.

Substance “human recombinant soluble Apo2L/TRAIL, non-tagged (trimeric) (from UniProt P50591 114-281) (ligand)” returned a rate of DR5 endocytosis of 2 fold and a receptor internalizing over 2 hr (fraction of the receptor) of 0.33.
